This test deals with unphosphorylated beta subunit of the insulin receptor (IRβ), recombinant (UniProt P06213). The test is described as follows: SPR; Biacore T200, unphosphorylated IRβ immobilised on a CM5 chip; same amounts of IRS1 or IRS2 injected together with different (nM) concentrations of C646; HBS-P buffer (10 mM Hepes, 150 mM NaCl, 0.05% P20, pH 7.4), 30 μl/min, 25 °C; global fit to 1:1 Langmuir model. Background: SPR reads the build-up and loss of mass on a sensor chip optically.
Chain of unphosphorylated beta subunit of the insulin receptor (IRβ), recombinant (P06213 763-1382): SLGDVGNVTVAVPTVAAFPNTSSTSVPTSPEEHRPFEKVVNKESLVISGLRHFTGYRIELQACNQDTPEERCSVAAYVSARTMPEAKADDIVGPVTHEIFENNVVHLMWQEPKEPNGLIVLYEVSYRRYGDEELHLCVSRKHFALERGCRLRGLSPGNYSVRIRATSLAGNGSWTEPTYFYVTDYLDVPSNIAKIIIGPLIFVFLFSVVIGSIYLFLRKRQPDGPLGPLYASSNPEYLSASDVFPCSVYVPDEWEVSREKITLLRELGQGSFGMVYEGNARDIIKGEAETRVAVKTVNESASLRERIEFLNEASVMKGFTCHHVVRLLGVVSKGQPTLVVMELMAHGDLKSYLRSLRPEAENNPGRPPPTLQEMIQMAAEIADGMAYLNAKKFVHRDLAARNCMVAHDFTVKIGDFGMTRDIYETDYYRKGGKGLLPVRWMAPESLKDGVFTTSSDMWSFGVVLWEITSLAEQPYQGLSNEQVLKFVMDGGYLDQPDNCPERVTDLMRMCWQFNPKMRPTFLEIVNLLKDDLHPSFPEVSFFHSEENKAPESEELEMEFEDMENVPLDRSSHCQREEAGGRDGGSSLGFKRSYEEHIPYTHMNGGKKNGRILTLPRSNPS

As to “purified IRS1 protein (insulin receptor substrate 1) (from UniProt P35569 1-1233) (natural protein)”, the KD with C646 is 2.86e-13.

On to “purified IRS2 protein (insulin receptor substrate 2) (from UniProt P81122 1-1321) (natural protein)”, for which the KD with C646 turned out to be 7.6e-12.

Source of the values: article PMC8850660, “The P300 acetyltransferase inhibitor C646 promotes membrane translocation of insulin receptor protein substrate and interaction with the insulin receptor” (The Journal of Biological Chemistry, 2022).
